In patent publication US11298402B2, “Lysosomal degradation of lipids and proteins and method of use thereof” (University of Ottawa, priority 2015, dated 2022):

Legend:
mice [1] = test: High fat diet and PO gavage for 10 days (palm oil-induced NASH mouse model); type: in vivo; details: HFD and PO gavage 10 days; in comparison with Arl8b^Q75L-treated mice
Protocol: For comparison, control mice were treated with Adv-MG1022 (a vector expressing Arl8b^Q75L) and then subjected to HFD and PO gavage for 10 days. (A) provides visceral views, and liver morphology views, of Arl8b^Q75L and Arl8b^T34N-treated mice, showing enhanced resistance to fatty liver and fat accumulation in Arl8b^T34N-treated mice. (B) provides images of liver sections stained with Oil Red O from mice subjected to a high fat diet and PO gavage for 10 days followed by treatment with Adv-MG1023 vector expressing Arl8b^T34N. For comparison, images of liver sections stained with Oil Red O obtained from mice treated with Adv-MG1022 (a vector expressing Arl8b^Q75L) and then subjected to HFD and PO gavage for 10 days are also provided.
In FIG. 49, mice were subjected to a high fat diet and PO gavage for 10 days, followed by treatment with Adv-MG1023 vector expressing Arl8b^T34N. For comparison, mice were treated with Adv-MG1022 (a vector expressing Arl8b^Q75L; FIG. 46) and then subjected to HFD and PO gavage for 10 days. These experiments may be considered as palm oil-induced NASH mouse models. FIG. 49A provides visceral views, and liver morphology views, of Arl8b^Q75L and Arl8b^T34N-treated mice, showing enhanced resistance to fatty liver and fat accumulation in Arl8b^T34N-treated mice. […]

mice [2] = test: Mice fed a high fat diet for 30 days, adenoviral vector via tail vein; type: in vivo; details: HFD 30 days, Adv-MG1023 10^9 pfu/mouse, 48 h; vs empty vector
From the text: (§1) Mice were fed with a high fat diet (HFD) for 30 days, and injected with Adv-empty vector (EV) or Adv-MG1023 expressing Arl8b^T34N via the tail vein (10^9 pfu/mouse). Forty eight hours after virus injection, mice were euthanized and dissected to collect liver tissue samples. Liver tissues were frozen fresh in Cryomatrix (ThermoScientific), and then sectioned and processed for oil red o staining. Intrahepatic liver lipid droplets in the liver sections were observed under bright field microscope (Zeiss AxioImager M2).
as §1, with “In FIG. 48, mice” for “Mice”, “Adv-MG1023 vector (FIG. 46)” for “Adv-MG1023”, “tissues.” for “tissue samples.”

[3] = tested on: HCV core protein expressing cells; test: Imaging of HCV core protein expressing cells; type: cell-based
From the text: This may be because the presence of HCV core protein may “lock” lysosomes onto the LD surface during the lysosomal engulfment process, resulting in scattered distribution of lysosomes throughout the cell cytoplasm. This situation is similar to that observed in cells after prolonged treatment with oleate (see FIG. 36, top row). White arrows indicate HCV core protein (pseudo-colored in green) and lysosomes (LysoTracker; blue) in association with LDs;
FIG. 41 provides data illustrating the effect of Arl8b “DN” on HCV core distribution and interaction between lysosomes and lipid droplets.
As shown in HCV core protein expressing cells (FIG. 41, left panel), the HCV core proteins (GFP-tagged) are bound to CLDs. The core protein binding to the CLDs apparently renders persistent lysosomal interaction with CLDs (i.e. kiss without run) and thus impaired microautophagy. As explained with reference to FIG. 39, functional microautophagy includes proper lysosomal engulfment (Kiss) and termination of this process, via lysosomal “go”, “interact”, and “back” events. As detailed herein, by introducing a putative GDP-bound form or Arl8b (Arl8b^T34N) into the HCV core protein-expressing cells, microautophagy functionality may be restored (FIG. 41, right panel). […]

B1: Arl8b^T34N: putative GDP-bound, dominant negative Arl8b mutant (Thr-to-Asn at 34; SEQ ID NO: 12), expressed from plasmid or adenovirus Adv-MG1023; tagged forms used (protein)
chain: MLALISRLLDWFRSLFWKEEMELTLVGLQYSGKNTFVNVIASGQFSEDMIPTVGFNMRKVTKGNVTIKIWDIGGQPRFRSMWERYCRGVNAIVYMIDAADREKIEASRNELHNLLDKPQLQGIPVLVLGNKRDLPNALDEKQLIEKMNLSAIQDREICCYSISCKEKDNIDITLQWLIQHSKSRRS
modifications: GFP/RFP tags in some forms; T34N substitution, GDP-binding
notes: tagged forms used
fatty liver disease arising from HFD (mice [1]): enhanced resistance to fatty liver disease | abdominal fat accumulation (mice [2]): less abdominal fat | fatty liver (Oil Red O) (mice [2]): more resistant to fatty liver | obesity (mice [2]): less obese | HCV core protein distribution on CLD [3]: displaced HCV core protein from the CLD surface | lysosome association with LD surface [3]: effectively displace lysosomes from LD surface
